{
  "source": "patent US20150150960A1",
  "about": "“PROTECTION AGAINST DENGUE VIRUS AND PREVENTION OF SEVERE DENGUE DISEASE” (priority 2010, published 2015)",
  "key": {"[1]": {"target": "target splenocytes pulsed with NS2B108-122, NS3198-212 and NS3237-251 together (I-A^b-restricted)"}, "[2]": {"target": "purified HLA B*0702 molecules (human)", "assay": "inhibition of radiolabeled probe peptide binding to purified HLA"}, "[3]": {"target": "purified HLA A*0201 molecules (human)", "assay": "inhibition of radiolabeled probe peptide binding to purified HLA"}, "[4]": {"target": "C53-67 / HLA DRB1*0101 (DENV2 strain S221; human)"}, "[5]": {"target": "E451-459 / HLA A*0101 (DENV2 strain S221; human)"}, "[6]": {"target": "E631-639 / HLA A*0201 (DENV2 strain S221; human)"}, "[7]": {"target": "NS11090-1099 / HLA A*0101 (DENV2 strain S221; human)"}, "[8]": {"target": "NS2A1199-1213 / HLA DRB1*0101 (DENV2 strain S221; human)"}, "[9]": {"target": "NS2A1212-1221 / HLA B*0702 (DENV2 strain S221; human)"}, "[10]": {"target": "NS2A1251-1259 / HLA A*0101 (DENV2 strain S221; human)"}, "[11]": {"target": "NS2B1355-1363 / HLA A*0201 (DENV2 strain S221; human)"}, "[12]": {"target": "NS2B1356-1370 / HLA DRB1*0101 (DENV2 strain S221; human)"}, "[13]": {"target": "NS2B1383-1391 / HLA A*0201 (DENV2 strain S221; human)"}, "[14]": {"target": "NS2B1450-1459 / HLA A*0201 (DENV2 strain S221; human)"}, "[15]": {"target": "NS31465-1473 / HLA A*0201 (DENV2 strain S221; human)"}, "[16]": {"target": "NS31509-1517 / HLA A*1101 (DENV2 strain S221; human)"}, "[17]": {"target": "NS31608-1617 / HLA A*1101 (DENV2 strain S221; human)"}, "[18]": {"target": "NS31681-1689 / HLA A*0201 (DENV2 strain S221; human)"}, "[19]": {"target": "NS31682-1690 / HLA B*0702 (DENV2 strain S221; human)"}, "[20]": {"target": "NS31700-1709 / HLA B*0702 (DENV2 strain S221; human)"}, "[21]": {"target": "NS31753-1761 / HLA B*0702 (DENV2 strain S221; human)"}, "[22]": {"target": "NS31808-1817 / HLA B*0702 (DENV2 strain S221; human)"}, "[23]": {"target": "NS31863-1871 / HLA A*1101 (DENV2 strain S221; human)"}, "[24]": {"target": "NS31978-1987 / HLA B*0702 (DENV2 strain S221; human)"}, "[25]": {"target": "NS32013-2022 / HLA A*0201 (DENV2 strain S221; human)"}, "[26]": {"target": "NS4A2074-2083 / HLA A*1101 (DENV2 strain S221; human)"}, "[27]": {"target": "NS4A2140-2148 / HLA A*0201 (DENV2 strain S221; human)"}, "[28]": {"target": "NS4A2205-2213 / HLA A*0201 (DENV2 strain S221; human)"}, "[29]": {"target": "NS4B2280-2289 / HLA B*0702 (DENV2 strain S221; human)"}, "[30]": {"target": "NS4B2296-2304 / HLA B*0702 (DENV2 strain S221; human)"}, "[31]": {"target": "NS4B2315-2323 / HLA A*1101 (DENV2 strain S221; human)"}, "[32]": {"target": "NS4B2399-2407 / HLA A*0101 (DENV2 strain S221; human)"}, "[33]": {"target": "NS52608-2616 / HLA A*1101 (DENV2 strain S221; human)"}, "[34]": {"target": "NS52646-2655 / HLA B*0702 (DENV2 strain S221; human)"}, "[35]": {"target": "NS52885-2894 / HLA B*0702 (DENV2 strain S221; human)"}, "[36]": {"target": "NS52966-2980 / HLA DRB1*0101 (DENV2 strain S221; human)"}, "[37]": {"target": "NS53058-3066 / HLA A*0201 (DENV2 strain S221; human)"}, "[38]": {"target": "NS53077-3085 / HLA B*0702 (DENV2 strain S221; human)"}, "[39]": {"target": "NS53079-3087 / HLA A*1101 (DENV2 strain S221; human)"}, "[40]": {"target": "NS53112-3121 / HLA A*1101 (DENV2 strain S221; human)"}, "[41]": {"target": "NS53283-3291 / HLA A*1101 (DENV2 strain S221; human)"}, "[42]": {"target": "NS53375-3383 / HLA A*0101 (DENV2 strain S221; human)"}, "[43]": {"target": "NS31742-1756 / HLA DRB1*0101 (DENV2 strain S221; human)"}},
  "data": [
    {"substance": "CD4+ T cells of DENV2-infected IFN-α/βR-/- mice (C57BL/6 background) (cells without a defined receptor)", "values": [
      {"measurement": "in vivo cytotoxicity assay, percentage killing", "setting": "[1]", "value": 30, "unit": "%"}
    ]},
    {"substance": "NS4B2296-2305 (peptide)", "values": [
      {"measurement": "IC50", "setting": "[2]", "value": "> 1000", "unit": "nM"}
    ]},
    {"substance": "NS31681-1689 (peptide)", "values": [
      {"measurement": "IC50", "setting": "[3]", "value": 18, "unit": "nM"}
    ]},
    {"substance": "PBMC from HLA matched DENV seropositive human donors (cells without a defined receptor)", "values": [
      {"measurement": "T cell responses [SFC] human (IFNγ ELISPOT)", "setting": "[4]", "value": 314, "unit": "SFC"},
      {"measurement": "T cell responses [SFC] human (IFNγ ELISPOT)", "setting": "[5]", "value": 67, "unit": "SFC"},
      {"measurement": "T cell responses [SFC] human (IFNγ ELISPOT)", "setting": "[6]", "value": 393, "unit": "SFC"},
      {"measurement": "T cell responses [SFC] human (IFNγ ELISPOT)", "setting": "[7]", "value": 104, "unit": "SFC"},
      {"measurement": "T cell responses [SFC] human (IFNγ ELISPOT)", "setting": "[8]", "value": 249, "unit": "SFC"},
      {"measurement": "T cell responses [SFC] human (IFNγ ELISPOT)", "setting": "[9]", "value": 335, "unit": "SFC"},
      {"measurement": "T cell responses [SFC] human (IFNγ ELISPOT)", "setting": "[10]", "value": 143, "unit": "SFC"},
      {"measurement": "T cell responses [SFC] human (IFNγ ELISPOT)", "setting": "[11]", "value": 417, "unit": "SFC"},
      {"measurement": "T cell responses [SFC] human (IFNγ ELISPOT)", "setting": "[12]", "value": 279, "unit": "SFC"},
      {"measurement": "T cell responses [SFC] human (IFNγ ELISPOT)", "setting": "[13]", "value": 434, "unit": "SFC"},
      {"measurement": "T cell responses [SFC] human (IFNγ ELISPOT)", "setting": "[14]", "value": 588, "unit": "SFC"},
      {"measurement": "T cell responses [SFC] human (IFNγ ELISPOT)", "setting": "[15]", "value": 495, "unit": "SFC"},
      {"measurement": "T cell responses [SFC] human (IFNγ ELISPOT)", "setting": "[16]", "value": 0, "unit": "SFC"},
      {"measurement": "T cell responses [SFC] human (IFNγ ELISPOT)", "setting": "[17]", "value": 880, "unit": "SFC"},
      {"measurement": "T cell responses [SFC] human (IFNγ ELISPOT)", "setting": "[18]", "value": 401, "unit": "SFC"},
      {"measurement": "T cell responses [SFC] human (IFNγ ELISPOT)", "setting": "[19]", "value": 207, "unit": "SFC"},
      {"measurement": "T cell responses [SFC] human (IFNγ ELISPOT)", "setting": "[20]", "value": 1430, "unit": "SFC"},
      {"measurement": "T cell responses [SFC] human (IFNγ ELISPOT)", "setting": "[21]", "value": 410, "unit": "SFC"},
      {"measurement": "T cell responses [SFC] human (IFNγ ELISPOT)", "setting": "[22]", "value": 232, "unit": "SFC"},
      {"measurement": "T cell responses [SFC] human (IFNγ ELISPOT)", "setting": "[23]", "value": 0, "unit": "SFC"},
      {"measurement": "T cell responses [SFC] human (IFNγ ELISPOT)", "setting": "[24]", "value": 1820, "unit": "SFC"},
      {"measurement": "T cell responses [SFC] human (IFNγ ELISPOT)", "setting": "[25]", "value": 312, "unit": "SFC"},
      {"measurement": "T cell responses [SFC] human (IFNγ ELISPOT)", "setting": "[26]", "value": 3090, "unit": "SFC"},
      {"measurement": "T cell responses [SFC] human (IFNγ ELISPOT)", "setting": "[27]", "value": 297, "unit": "SFC"},
      {"measurement": "T cell responses [SFC] human (IFNγ ELISPOT)", "setting": "[28]", "value": 301, "unit": "SFC"},
      {"measurement": "T cell responses [SFC] human (IFNγ ELISPOT)", "setting": "[29]", "value": 0, "unit": "SFC"},
      {"measurement": "T cell responses [SFC] human (IFNγ ELISPOT)", "setting": "[30]", "value": 460, "unit": "SFC"},
      {"measurement": "T cell responses [SFC] human (IFNγ ELISPOT)", "setting": "[31]", "value": 0, "unit": "SFC"},
      {"measurement": "T cell responses [SFC] human (IFNγ ELISPOT)", "setting": "[32]", "value": 92, "unit": "SFC"},
      {"measurement": "T cell responses [SFC] human (IFNγ ELISPOT)", "setting": "[33]", "value": 0, "unit": "SFC"},
      {"measurement": "T cell responses [SFC] human (IFNγ ELISPOT)", "setting": "[34]", "value": 0, "unit": "SFC"},
      {"measurement": "T cell responses [SFC] human (IFNγ ELISPOT)", "setting": "[35]", "value": 1340, "unit": "SFC"},
      {"measurement": "T cell responses [SFC] human (IFNγ ELISPOT)", "setting": "[36]", "value": 729, "unit": "SFC"},
      {"measurement": "T cell responses [SFC] human (IFNγ ELISPOT)", "setting": "[37]", "value": 597, "unit": "SFC"},
      {"measurement": "T cell responses [SFC] human (IFNγ ELISPOT)", "setting": "[38]", "value": 390, "unit": "SFC"},
      {"measurement": "T cell responses [SFC] human (IFNγ ELISPOT)", "setting": "[39]", "value": 0, "unit": "SFC"},
      {"measurement": "T cell responses [SFC] human (IFNγ ELISPOT)", "setting": "[40]", "value": 0, "unit": "SFC"},
      {"measurement": "T cell responses [SFC] human (IFNγ ELISPOT)", "setting": "[41]", "value": 800, "unit": "SFC"},
      {"measurement": "T cell responses [SFC] human (IFNγ ELISPOT)", "setting": "[42]", "value": 143, "unit": "SFC"}
    ]},
    {"substance": "splenic CD4+ T cells of DENV2 (S221)-infected HLA DRB1*0101 transgenic IFN-α/βR-/- mice (cells without a defined receptor)", "values": [
      {"measurement": "T cell responses [SFC] mouse (IFNγ ELISPOT)", "setting": "[4]", "value": 77, "unit": "SFC"},
      {"measurement": "T cell responses [SFC] mouse (IFNγ ELISPOT)", "setting": "[8]", "value": 764, "unit": "SFC"},
      {"measurement": "T cell responses [SFC] mouse (IFNγ ELISPOT)", "setting": "[12]", "value": 65, "unit": "SFC"},
      {"measurement": "T cell responses [SFC] mouse (IFNγ ELISPOT)", "setting": "[43]", "value": 448, "unit": "SFC"},
      {"measurement": "T cell responses [SFC] mouse (IFNγ ELISPOT)", "setting": "[36]", "value": 851, "unit": "SFC"}
    ]}
  ]
}
